In patent US20100081620:

Target: T1, Dabcyl-LAQAHomoPheRSC(Fluorescein)-NH2
T1 chain: LAQAFRSC
Assay: enzyme kinetics, initial velocities fitted to a pure competitive two-site model

B1: Human ADAM10 protease containing the catalytic/disintegrin domains (protein)
chain: TTSAEKNTCQLYIQTDHLFFKYYGTREAVIAQISSHVKAIDTIYQTTDFSGIRNISFMVKRIRINTTADEKDPTNPFRFPNIGVEKFLELNSEQNHDDYCLAYVFTDRDFDDGVLGLAWVGAPSGSSGGICEKSKLYSDGKKKSLNTGIITVQNYGSHVPPKVSHITFAHEVGHNFGSPHDSGTECTPGESKNLGQKENGNYIMYARATSGDKLNNNKFSLCSIRNISQVLEKKRNNCFVESGQPICGNGMVEQGEECDCGYSDQCKDECCFDANQPEGRKCKLKPGKQCSPSQGPCCTAQCAFKSKSEKCRDDSDCAREGICNGFTALCPASDPKPNFTDCNRHTQVCINGQCAGSICEKYGLEECTCASSDGKDDKELCHVCCMKKMDPSTCASTGSVQWSRHFSGRTITLQPGSPCNDFRGYCDVFMRCRLVDADGPLARLKKAIFSPELYENIAE
Ks (binding constant for substrate): the binding constant, Ks for substrate was 16±4.6 µM
